Test results taken from US20020168358A1, “Treatment of T-cell mediated diseases” (priority 2001, published 2002).

B1: SLC: secondary lymphoid organ chemokine, ligand of the CCR7 receptor (protein, UniProt O00585 24-134, looked up)
C-C motif chemokine 21: SDGGAQDCCLKYSQRKIPAKVVRSYRKQEPSLGCSIPAILFLPRKRSQAELCADPKELWVQQLMQHLDKTPSPQKPAQGCRKDRGASKTGKKGKGSKGCKRTERSQTPKGP
B2: MIP-3β: chemokine, macrophage inflammatory protein-3b, ligand of the CCR7 receptor (protein, UniProt Q99731 22-98, looked up)
C-C motif chemokine 19: GTNDAEDCCLSVTQKPIPGYIVRNFHYLLIKDGCRVPAVVFTTLRGRQLCAPPDQPWVERIIQRLQRTSAKMKRRSS
B3: MIP-1α: chemokine tested for comparison in T cell chemotaxis (protein, UniProt P10147 24-92, looked up)
C-C motif chemokine 3: SLAADTPTACCFSYTSRQIPQNFIADYFETSSQCSKPGVIFLTKRSRQVCADPSEEWVQKYVSDLELSA
B4: MIP-1β: chemokine tested for comparison in T cell chemotaxis (protein, UniProt P13236 24-92, looked up)
C-C motif chemokine 4: APMGSDPPTACCFSYTARKLPRNFVVDYYETSSLCSQPAVVFQTKRSKQVCADPSESWVQEYVYDLELN
B5: RANTES: chemokine tested for comparison in T cell chemotaxis (protein, UniProt P13501 24-91, looked up)
C-C motif chemokine 5: SPYSSDTTPCCFAYIARPLPRAHIKEYFYTSGKCSNPAVVFVTRKNRQVCANPEKKWVREYINSLEMS
B6: Tarc: chemokine tested for comparison in T cell chemotaxis (protein, UniProt Q92583 24-94, looked up)
C-C motif chemokine 17: ARGTNVGRECCLEYFKGAIPLRKLKTWYQTSEDCSRDAIVFVTVQGRAICSDPNNKRVKNAVKYLQSLERS

What follows are molecules tested on PHA-activated human T cells (assay: In vitro chemotaxis of T cells (48-well Boyden chamber)). Conditions: FIG. 3.
Type: cell-based
Description: Lymphocyte and PHA blast chemotaxis to appropriate chemokine was measured using a 48-well Boyden chamber (Neuro Probe Inc., Cabin John, Md.). Agonists were diluted in RPMI media (BioWhittaker, Walkersville, Md.) containing 0.1% bovine serum albumin (Invitrogen, Carlsbad, Calif.) and added to the bottom wells of the chemotaxis chamber. Peripheral mononuclear blood cells were resuspended in RPMI/BSA media at a concentration of 2.5×10^6 cells per ml. Fifty μl of this cell suspension was then added to the upper chamber. A 5 μm PVP-free polycarbonate filter, coated on the bottom with 10 microgram/ml of human type IV collagen (Neuro Probe Inc.), was used to separate the wells of the chamber Chambers were incubated for 60 minutes in a 5% CO2-humidified atmosphere at 37° C. After the incubation period, the filters were removed, the top side was scraped to remove non-migrating cells, and the filters were stained with Diff-Quik stain (Dade Behring AG, Dudingen, Switzerland). The number of PMBC cells migrating was counted by light microscopy. The mean of three high powered fields was then determined. The number of migrating PMBC cells was calculated by subtracting […].

Row | Molecule | chemoattractant activity for PHA-activated human T cells
1 | B1 | potent chemoattractants
2 | B2 | potent chemoattractants

Same assay, conditions: Hut 78 and primary T cells

Row | Molecule | effect on T cell chemotaxis compared with other chemokines
3 | IP-10: chemokine tested for comparison in T cell chemotaxis | minimal effects
4 | MCP-1: chemokine tested for comparison in T cell chemotaxis | minimal effects
5 | MCP-3: chemokine tested for comparison in T cell chemotaxis | minimal effects
6 | B1 | most potent T cell chemotactic agents
7 | B2 | most potent T cell chemotactic agents
8 | B3 | minimal effects
9 | B4 | minimal effects
10 | B5 | minimal effects
11 | B6 | minimal effects

These molecules were tested against T1, CCR7 (Homo sapiens, UniProt P32248) (assay: Binding assay: 125I-MIP-3β binding to HUT-78 cell membranes (scintillation proximity)). Conditions: binding assay of Example 1, HUT-78 membranes, read-out: IC50, inhibition of binding of MIP-3β to CCR7.
T1 construct: The cells were then disrupted with a Polytron homogenizer and centrifuged at 30,000× g for 10 min; endogenous in cells; host or cells: HUT-78 cells (membrane pellet)
T1 sequence (P32248 25-378): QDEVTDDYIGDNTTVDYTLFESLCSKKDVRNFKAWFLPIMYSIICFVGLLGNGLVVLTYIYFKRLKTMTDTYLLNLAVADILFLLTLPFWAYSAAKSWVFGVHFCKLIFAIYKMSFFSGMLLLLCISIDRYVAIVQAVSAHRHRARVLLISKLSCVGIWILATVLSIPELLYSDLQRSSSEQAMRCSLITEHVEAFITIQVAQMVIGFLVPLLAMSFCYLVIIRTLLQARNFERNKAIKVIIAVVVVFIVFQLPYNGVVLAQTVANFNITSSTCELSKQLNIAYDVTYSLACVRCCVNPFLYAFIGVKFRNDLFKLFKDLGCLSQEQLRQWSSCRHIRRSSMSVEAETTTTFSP
Description: HUT-78 cells were cultured in RPMI media with 10% FBS, pen-strep (100 u/ml), L-glutamine (2 mM), HEPES (10 mM) and non-essential amino acids (0.1 mM). The cells were collected by centrifugation at 170× g for 5 min and resuspended to 50×10^ 6 cells/ml in Dulbeccoco's Ca^2+ and Mg^2+ free media containing 8 mg/l aprotinin at 4° C. The cells were then disrupted with a Polytron homogenizer and centrifuged at 30,000× g for 10 min. The pellet was washed 6 times and stored at −80° C.
The binding assay was run in a buffer containing HEPES (50 mM), CaCl2 (1 mM), MgCl2 (5 mM), NaCl (150 mM) and BSA (0.5 mg/ml), pH 7.2. The pellet was resuspended to 8×10^6 cell equivalents/ml and 50 μl was added to microtiter plate wells containing 130 μl of buffer with various concentrations of compounds, and 0.5 mg PEI-treated wheatgerm agglutinin-coated scintillation proximity beads (Amersham). The binding was initiated by the addition of 20 μl of 600 pM ^125I-MIP-3β (New England Nuclear). The microtiter plate was mixed and then the beads were allowed to settle overnight before counting in a Microbeta plus liquid scintillation counter (Wallac).

Row | Molecule | IC50
12 | O=S1(=O)COc2cc(NCCCc3cnco3)ccc2N1 [Example 3] | 1.5 µM
13 | Cc1cc(C)c2c(=O)n(CC(O)CN(C)CC3OCCCO3)sc2c1 (stereo not drawn) [Example 4] | 2.2 µM

Each molecule was assayed on Hut-78 cells (assay: In vitro chemotaxis of Hut-78 cells). Conditions: FIG. 2.
Type: cell-based

Row | Molecule | chemoattractant activity for Hut-78 cells
14 | B1 | potent chemoattractants
15 | B2 | potent chemoattractants
